Source: US20120065379A1 (Chugai, published 2012)

Columns and labels:
[1] = molecular target: T1, Soluble human FcRn (complex of FcRn and β2-microglobulin) (human, UniProt P55899 24-290; P61769 21-119); assay: SPR (Biacore 3000), pH 6.0; antibody captured on Protein L or rabbit anti-human IgG Kappa chain antibody, human FcRn as analyte; steady state affinity fit
T1 construct: Co-expressed in HEK293H cells and purified from the culture supernatant; also called hFcRn
Experimental: (§1) Human FcRn was prepared according to the method described in Reference Example 2. The binding to human FcRn was assessed using Biacore 3000. An antibody was bound to Protein L or rabbit anti-human IgG Kappa chain antibody immobilized onto a sensor chip, human FcRn was added as an analyte for interaction with the antibody, and the affinity (KD) was calculated from the amount of bound human FcRn. Specifically, Protein L or rabbit anti-human IgG Kappa chain antibody was immobilized onto sensor chip CMS (BIACORE) by the amine coupling method using 50 mM Sodium-phosphate buffer (pH 6.0) containing 150 mM NaCl as the running buffer. Then, IL6R H0-IgG1/L0-k0 and IL6R H0-M82/L0-k0 was each diluted with a running buffer containing 0.02% Tween20, and injected to be bound to the chip. Human FcRn was then injected and the binding of the human FcRn to antibody was assessed.
(§2) The affinity was computed using BIAevaluation Software. The obtained sensorgram was used to calculate the amount of hFcRn bound to the antibody immediately before the end of human FcRn injection. The affinity of the antibody for human FcRn was calculated by fitting with the steady state affinity method.

[2] = molecular target: T1, Soluble human FcRn (complex of FcRn and …); assay: SPR (Biacore 3000), pH 6.0; antibody captured, human FcRn as analyte; steady state affinity
Experimental: as §1, §2

T1 sequence (P55899 24-290 limits assumed, chain 1 of 2): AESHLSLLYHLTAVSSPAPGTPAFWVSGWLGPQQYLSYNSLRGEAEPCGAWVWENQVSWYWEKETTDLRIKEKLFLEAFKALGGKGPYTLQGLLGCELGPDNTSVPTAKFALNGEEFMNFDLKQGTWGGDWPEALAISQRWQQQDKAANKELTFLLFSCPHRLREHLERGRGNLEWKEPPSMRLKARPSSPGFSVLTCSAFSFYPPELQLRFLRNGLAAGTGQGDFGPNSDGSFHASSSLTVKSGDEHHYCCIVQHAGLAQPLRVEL
T1 sequence (P61769 21-119 limits assumed, chain 2 of 2): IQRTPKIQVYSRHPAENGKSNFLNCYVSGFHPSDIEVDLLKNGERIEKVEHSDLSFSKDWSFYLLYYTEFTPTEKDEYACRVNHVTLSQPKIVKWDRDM

B1: IL6R H0-M82/L0-k0 (antibody, IgG2)
heavy: QVQLQESGPGLVRPSQTLSLTCTVSGYSITSDHAWSWVRQPPGRGLEWIGYISYSGITTYNPSLKSRVTMLRDTSKNQFSLRLSSVTAADTAVYYCARSLARTTAMDYWGQGSLVTVSSASTKGPSVFPLAPCSRSTSESTAALGCLVKDYFPEPVTVSWNSGALTSGVHTFPAVLQSSGLYSLSSVVTVPSSNFGTQTYTCNVDHKPSNTKVDKTVERKSSVECPPCPAPPVAGPSVFLFPPKPKDTLMISRTPEVTCVVVDVSQEDPEVQFNWYVDGVEVHNAKTKPREEQFNSTFRVVSVLTVVHQDWLNGKEYKCKVSNKGLPAPIEKTISKTKGQPREPQVYTLPPSQEEMTKNQVSLTCLVKGFYPSDIAVEWESNGQPENNYKTTPPMLDSDGSFFLYSKLTVDKSRWQEGNVFSCSVMHEALHNHYTQKSLSLSP
light: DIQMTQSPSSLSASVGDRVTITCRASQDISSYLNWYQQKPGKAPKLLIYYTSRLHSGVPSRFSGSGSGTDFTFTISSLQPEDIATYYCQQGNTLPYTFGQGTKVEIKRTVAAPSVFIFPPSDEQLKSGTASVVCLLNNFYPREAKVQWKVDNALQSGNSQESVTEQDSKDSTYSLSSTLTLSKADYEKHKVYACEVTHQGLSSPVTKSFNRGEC
notes: Same variable regions as m1; The M82 constant region is an IgG2 variant with C219S, C220S, H268Q, R355Q and Q419E (EU numbering) and with Gly446 and Lys447 deleted; also called M82-k0
[1]
  Kd: 1210 nM
[2]
  fold increase of binding compared to IL6R H0-IgG1/L0-k0: ~1.34 times
